Experimental data published in IntAct's records for PubMed 29892012.

B1: Chaperone Ric-8A (Homo sapiens), Q9NPQ8 (parent)
chain: MEPRAVAEAVETGEEDVIMEALRSYNQEHSQSFTFDDAQQEDRKRLAELLVSVLEQGLPPSHRVIWLQSVRILSRDRNCLDPFTSRQSLQALACYADISVSEGSVPESADMDVVLESLKCLCNLVLSSPVAQMLAAEARLVVKLTERVGLYRERSFPHDVQFFDLRLLFLLTALRTDVRQQLFQELKGVRLLTDTLELTLGVTPEGNPPPTLLPSQETERAMEILKVLFNITLDSIKGEVDEEDAALYRHLGTLLRHCVMIATAGDRTEEFHGHAVNLLGNLPLKCLDVLLTLEPHGDSTEFMGVNMDVIRALLIFLEKRLHKTHRLKESVAPVLSVLTECARMHRPARKFLKAQVLPPLRDVRTRPEVGEMLRNKLVRLMTHLDTDVKRVAAEFLFVLCSESVPRFIKYTGYGNAAGLLAARGLMAGGRPEGQYSEDEDTDTDEYKEAKASINPVTGRVEEKPPNPMEGMTEEQKEHEAMKLVTMFDKLSRNRVIQPMGMSPRGHLTSLQDAMCETMEQQLSSDPDSDPD
partner: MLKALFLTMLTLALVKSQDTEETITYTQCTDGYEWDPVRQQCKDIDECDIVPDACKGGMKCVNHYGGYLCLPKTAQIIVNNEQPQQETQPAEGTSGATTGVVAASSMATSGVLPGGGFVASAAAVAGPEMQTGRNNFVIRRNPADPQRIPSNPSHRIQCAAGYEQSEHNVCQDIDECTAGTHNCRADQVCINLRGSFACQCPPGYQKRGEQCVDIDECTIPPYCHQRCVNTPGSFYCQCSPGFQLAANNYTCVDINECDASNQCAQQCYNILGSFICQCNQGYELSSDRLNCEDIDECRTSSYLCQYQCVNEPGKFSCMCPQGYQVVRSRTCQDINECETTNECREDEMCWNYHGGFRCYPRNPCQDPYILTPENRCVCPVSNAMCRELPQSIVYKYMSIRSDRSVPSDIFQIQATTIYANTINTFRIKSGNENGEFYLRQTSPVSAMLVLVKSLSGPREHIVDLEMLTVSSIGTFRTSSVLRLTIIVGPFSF
B2: Liprin-alpha-1 (Homo sapiens), Q13136 (parent)
chain: MMCEVMPTISEAEGPPGGGGGHGSGSPSQPDADSHFEQLMVSMLEERDRLLDTLRETQETLALTQGKLHEVGHERDSLQRQLNTALPQEFAALTKELNVCREQLLEREEEIAELKAERNNTRLLLEHLECLVSRHERSLRMTVVKRQAQSPAGVSSEVEVLKALKSLFEHHKALDEKVRERLRVALERCSLLEEELGATHKELMILKEQNNQKKTLTDGVLDINHEQENTPSTSGKRSSDGSLSHEEDLAKVIELQEIISKQSREQSQMKERLASLSSHVTELEEDLDTARKDLIKSEEMNTKLQRDVREAMAQKEDMEERITTLEKRYLAAQREATSVHDLNDKLENEIANKDSMHRQTEDKNRQLQERLELAEQKLQQTLRKAETLPEVEAELAQRVAALSKAEERHGNIEERLRQMEAQLEEKNQELQRARQREKMNEEHNKRLSDTVDKLLSESNERLQLHLKERMAALEDKNSLLREVESAKKQLEETQHDKDQLVLNIEALRAELDHMRLRGASLHHGRPHLGSVPDFRFPMADGHTDSYSTSAVLRRPQKGRLAALRDEPSKVQTLNEQDWERAQQASVLANVAQAFESDADVSDGEDDRDTLLSSVDLLSPSGQADAHTLAMMLQEQLDAINKEIRLIQEEKENTEQRAEEIESRVGSGSLDNLGRFRSMSSIPPYPASSLASSSPPGSGRSTPRRIPHSPAREVDRLGVMTLLPPSREEVRDDKTTIKCETSPPSSPRALRLDRLHKGALHTVSHEDIRDIRNSTGSQDGPVSNPSSSNSSQDSLHKAPKKKGIKSSIGRLFGKKEKGRPGQTGKEALGQAGVSETDNSSQDALGLSKLGGQAEKNRKLQKKHELLEEARRQGLPFAQWDGPTVVVWLELWVGMPAWYVAACRANVKSGAIMSALSDTEIQREIGISNPLHRLKLRLAIQEIMSLTSPSAPPTSRTTLAYGDMNHEWIGNEWLPSLGLPQYRSYFMECLVDARMLDHLTKKDLRGQLKMVDSFHRNSFQCGIMCLRRLNYDRKELERKREESQSEIKDVLVWSNDRVIRWILSIGLKEYANNLIESGVHGALLALDETFDFSALALLLQIPTQNTQARAVLEREFNNLLVMGTDRRFDEDDDKSFRRAPSWRKKFRPKDIRGLAAGSAETLPANFRVTSSMSSPSMQPKKMQMDGNVSGTQRLDSATVRTYSC
partner: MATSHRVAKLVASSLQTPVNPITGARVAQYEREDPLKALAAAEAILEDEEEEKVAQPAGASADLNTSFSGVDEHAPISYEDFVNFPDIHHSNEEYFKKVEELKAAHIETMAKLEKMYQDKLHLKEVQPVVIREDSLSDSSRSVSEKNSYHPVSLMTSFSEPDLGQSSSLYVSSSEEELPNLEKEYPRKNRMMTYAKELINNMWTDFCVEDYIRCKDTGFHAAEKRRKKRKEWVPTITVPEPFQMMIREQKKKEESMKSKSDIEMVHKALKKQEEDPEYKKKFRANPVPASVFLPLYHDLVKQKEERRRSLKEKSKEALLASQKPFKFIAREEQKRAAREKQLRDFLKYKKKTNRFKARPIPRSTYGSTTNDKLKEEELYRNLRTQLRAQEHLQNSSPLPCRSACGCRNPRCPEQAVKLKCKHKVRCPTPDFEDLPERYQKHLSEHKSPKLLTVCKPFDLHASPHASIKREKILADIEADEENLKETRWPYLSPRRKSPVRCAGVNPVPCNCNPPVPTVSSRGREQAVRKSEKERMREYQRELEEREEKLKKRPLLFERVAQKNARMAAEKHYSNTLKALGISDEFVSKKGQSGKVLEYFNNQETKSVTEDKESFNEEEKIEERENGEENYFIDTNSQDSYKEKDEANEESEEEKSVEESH
B3: Ligand of Numb protein X 2 (Homo sapiens), Q8N448 (parent)
chain: MGTTSDEMVSVEQTSSSSLNPLCFECGQQHWTRENHLYNYQNEVDDDLVCHICLQPLLQPLDTPCGHTFCYKCLRNFLQEKDFCPLDRKRLHFKLCKKSSILVHKLLDKLLVLCPFSSVCKDVMQRCDLEAHLKNRCPGASHRRVALERRKTSRTQAEIENENGPTLLDPAGTLSPEADCLGTGAVPVERHLTSASLSTWSEEPGLDNPAFEESAGADTTQQPLSLPEGEITTIEIHRSNPYIQLGISIVGGNETPLINIVIQEVYRDGVIARDGRLLAGDQILQVNNYNISNVSHNYARAVLSQPCNTLHLTVLRERRFGNRAHNHSDSNSPREEIFQVALHKRDSGEQLGIKLVRRTDEPGVFILDLLEGGLAAQDGRLSSNDRVLAINGHDLKYGTPELAAQIIQASGERVNLTIARPGKPQPGNTIREAGNHSSSSQHHTPPPYYSRPSSHKDLTQCVTCQEKHITVKKEPHESLGMTVAGGRGSKSGELPIFVTSVPPHGCLARDGRIKRGDVLLNINGIDLTNLSHSEAVAMLKASAASPAVALKALEVQIVEEATQNAEEQPSTFSENEYDASWSPSWVMWLGLPSTLHSCHDIVLRRSYLGSWGFSIVGGYEENHTNQPFFIKTIVLGTPAYYDGRLKCGDMIVAVNGLSTVGMSHSALVPMLKEQRNKVTLTVICWPGSLV
partner: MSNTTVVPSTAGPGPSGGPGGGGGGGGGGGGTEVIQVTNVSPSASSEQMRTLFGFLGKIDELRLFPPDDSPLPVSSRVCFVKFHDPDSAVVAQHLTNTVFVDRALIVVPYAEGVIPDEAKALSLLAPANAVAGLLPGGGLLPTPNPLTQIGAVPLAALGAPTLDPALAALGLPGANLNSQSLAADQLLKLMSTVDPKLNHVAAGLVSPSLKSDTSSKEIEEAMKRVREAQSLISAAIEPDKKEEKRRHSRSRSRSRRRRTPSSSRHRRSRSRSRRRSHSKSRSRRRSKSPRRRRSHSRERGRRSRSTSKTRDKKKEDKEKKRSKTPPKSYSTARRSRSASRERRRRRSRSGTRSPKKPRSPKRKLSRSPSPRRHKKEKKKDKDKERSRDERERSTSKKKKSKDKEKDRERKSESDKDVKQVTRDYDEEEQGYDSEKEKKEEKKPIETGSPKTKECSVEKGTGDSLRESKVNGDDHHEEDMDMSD
B4: Signal transducing adapter molecule 1 (Homo sapiens), Q92783 (parent)
chain: MPLFATNPFDQDVEKATSEMNTAEDWGLILDICDKVGQSRTGPKDCLRSIMRRVNHKDPHVAMQALTLLGACVSNCGKIFHLEVCSRDFASEVSNVLNKGHPKVCEKLKALMVEWTDEFKNDPQLSLISAMIKNLKEQGVTFPAIGSQAAEQAKASPALVAKDPGTVANKKEEEDLAKAIELSLKEQRQQSTTLSTLYPSTSSLLTNHQHEGRKVRAIYDFEAAEDNELTFKAGEIITVLDDSDPNWWKGETHQGIGLFPSNFVTADLTAEPEMIKTEKKTVQFSDDVQVETIEPEPEPAFIDEDKMDQLLQMLQSTDPSDDQPDLPELLHLEAMCHQMGPLIDEKLEDIDRKHSELSELNVKVMEALSLYTKLMNEDPMYSMYAKLQNQPYYMQSSGVSGSQVYAGPPPSGAYLVAGNAQMSHLQSYSLPPEQLSSLSQAVVPPSANPALPSQQTQAAYPNTMVSSVQGNTYPSQAPVYSPPPAATAAAATADVTLYQNAGPNMPQVPNYNLTSSTLPQPGGSQQPPQPQQPYSQKALL
B5: Cell division cycle-associated 7-like protein (Homo sapiens), Q96GN5 (parent)
chain: MELATRYQIPKEVADIFNAPSDDEEFVGFRDDVPMETLSSEESCDSFDSLESGKQQDVRFHSKYFTEELRRIFIEDTDSETEDFAGFTQSDLNGKTNPEVMVVESDLSDDGKASLVSEEEEDEEEDKATPRRSRSRRSSIGLRVAFQFPTKKLANKPDKNSSSEQLFSSARLQNEKKTILERKKDCRQVIQREDSTSESEDDSRDESQESSDALLKRTMNIKENKAMLAQLLAELNSMPDFFPVRTPTSASRKKTVRRAFSEGQITRRMNPTRSARPPEKFALENFTVSAAKFAEEFYSFRRRKTIGGKCREYRRRHRISSFRPVEDITEEDLENVAITVRDKIYDKVLGNTCHQCRQKTIDTKTVCRNQGCCGVRGQFCGPCLRNRYGEDVRSALLDPDWVCPPCRGICNCSYCRKRDGRCATGILIHLAKFYGYDNVKEYLESLQKELVEDN
partner: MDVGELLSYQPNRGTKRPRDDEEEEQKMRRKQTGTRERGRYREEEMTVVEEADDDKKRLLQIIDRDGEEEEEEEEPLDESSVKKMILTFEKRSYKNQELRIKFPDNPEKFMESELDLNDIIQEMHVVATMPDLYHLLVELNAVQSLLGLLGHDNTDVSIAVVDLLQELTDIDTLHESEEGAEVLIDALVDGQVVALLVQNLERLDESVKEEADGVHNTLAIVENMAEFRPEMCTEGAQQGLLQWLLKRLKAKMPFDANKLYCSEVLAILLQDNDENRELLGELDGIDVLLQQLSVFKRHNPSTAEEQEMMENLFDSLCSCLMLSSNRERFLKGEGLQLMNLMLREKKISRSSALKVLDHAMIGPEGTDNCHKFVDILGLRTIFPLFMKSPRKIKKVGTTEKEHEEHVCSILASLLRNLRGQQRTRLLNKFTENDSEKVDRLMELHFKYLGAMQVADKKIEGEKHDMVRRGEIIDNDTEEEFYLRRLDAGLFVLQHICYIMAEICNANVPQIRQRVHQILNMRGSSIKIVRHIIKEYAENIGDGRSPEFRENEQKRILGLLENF

Variants of: B1
Details: with fbln3_human EFEMP1, Q12805

| effect of a mutation on the interaction | Variant |
| --- | --- |
| with no effect | K319E |

Variants of: B2
Details: with FAM161A

| effect of a mutation on the interaction | Variant |
| --- | --- |
| disrupting interaction strength | L330F |

Variants of: B2
Details: with FAM161A
Remark: another data set of the same source

| effect of a mutation on the interaction | Variant |
| --- | --- |
| with no effect | P389L |

Variants of: B3
Details: with srs11_human SRSF11, Q05519

| effect of a mutation on the interaction | Variant |
| --- | --- |
| with no effect | P669A |

Variants of: B4
Details: with hgs_human HGS

| effect of a mutation on the interaction | Variant |
| --- | --- |
| with no effect | H331L |

Variants of: B5
Details: with ctbl1_human CTNNBL1, Q8WYA6

| effect of a mutation on the interaction | Variant |
| --- | --- |
| with no effect | R268H |
